Legend:
[1] = system: GLP-1R; conditions: various cell types; ref Jorgensen et al., 2005; Manchanda et al., 2023; cited from earlier work
Description: For many GPCRs, homologous desensitization first requires the phosphorylation of the active state of the receptor by the G protein-coupled receptor kinase (GRK) family of kinases. This is then followed by the binding of arrestin, which sterically hinders coupling to G proteins, effectively desensitizing the receptor ([Krasel et al., 2005]). Arrestin can also act as a scaffolding protein, linking the receptor to the cellular endocytic machinery and facilitating internalization ([Ferguson, 2001]). It is now appreciated that arrestin can also act as a signaling molecule in its own right, linking ...

[2] = system: INS-1 832/3 cells; conditions: ref Manchanda et al. (2023); cited from earlier work
[3] = system: INS-1 832/3 cells; conditions: ref Manchanda et al. (2023); cited from earlier work; remark: listed apart in the source
[4] = system: subjects with T2DM; parameters: method as in Nauck et al., 1993; Gasbjerg et al., 2020; conditions: pharmacological doses, ref Nauck et al., 1993, Gasbjerg et al., 2020; cited from earlier work
[5] = system: animal models of diabetes and obesity; conditions: ref McClean et al., 2007, Gault et al.; cited from earlier work
Description: (§1) [Graaf et al., 2016]). Both receptors are expressed in pancreatic β-cells and other cell types, resulting in numerous pleiotropic effects of their peptide agonists. […] [Liu et al., 2022]; [Drucker and Holst, 2023]). Studies show ...

[6] = system: GIPR; conditions: initially considered an antagonist; ref Al-Sabah et al., 2014a; Sparre-Ulrich et al., 2016; cited from earlier work
Description: as §1

[7] = subjects with obesity, phase 2 study, ref Véniant et al., 2024, Amgen; cited from earlier work
Description: as §1

[8] = biological target: NLuc-labeled human GIPR (human) (UniProt P48546); test: FRET or BRET; BRET in HEK-293 cells co-transfected 1:1 with NLuc-labeled receptor and NES-Venus-mini-G protein; cells in HBSS, agonist (GLP-1 or GIP) for 15 min, coelenterazine h 1 μM; BRET ratio as fold-change from non-stimulated, dose-response of the agonist
[9] = biological target: NLuc-labeled chimeric receptor GIP/GLP-1R (GIPR with the C-terminal tail of GLP-1R) (human); test: as above
[10] = biological target: NLuc-labeled human GLP-1R (human) (UniProt P43220); test: as above
[11] = biological target: NLuc-labeled chimeric receptor GLP-1/GIPR (GLP-1R with the C-terminal tail of GIPR) (human); test: as above
[12] = biological target: SYFP2-labeled chimeric receptor GLP-1/GIPR (GLP-1R with the C-terminal tail of GIPR) (human); test: FRET or BRET; BRET in HEK-293 cells co-transfected 1:2 with SYFP2-labeled receptor and Arr3-NLuc; cells in HBSS, agonist (GLP-1 or GIP) for 15 min, coelenterazine h 1 μM; BRET ratio as fold-change from non-stimulated, dose-response of the agonist
[13] = biological target: RLuc8-labeled chimeric receptor GLP-1/GIPR (GLP-1R with the C-terminal tail of GIPR) (human); test: FRET or BRET; BRET in HEK-293 cells co-transfected 1:2 with RLuc8-labeled receptor and Arr3-SYFP2; cells in HBSS, agonist (GLP-1 or GIP) for 15 min, coelenterazine h 1 μM; BRET ratio as fold-change from non-stimulated, dose-response of the agonist

Chain of NLuc-labeled human GLP-1R (human) (P43220 24-463): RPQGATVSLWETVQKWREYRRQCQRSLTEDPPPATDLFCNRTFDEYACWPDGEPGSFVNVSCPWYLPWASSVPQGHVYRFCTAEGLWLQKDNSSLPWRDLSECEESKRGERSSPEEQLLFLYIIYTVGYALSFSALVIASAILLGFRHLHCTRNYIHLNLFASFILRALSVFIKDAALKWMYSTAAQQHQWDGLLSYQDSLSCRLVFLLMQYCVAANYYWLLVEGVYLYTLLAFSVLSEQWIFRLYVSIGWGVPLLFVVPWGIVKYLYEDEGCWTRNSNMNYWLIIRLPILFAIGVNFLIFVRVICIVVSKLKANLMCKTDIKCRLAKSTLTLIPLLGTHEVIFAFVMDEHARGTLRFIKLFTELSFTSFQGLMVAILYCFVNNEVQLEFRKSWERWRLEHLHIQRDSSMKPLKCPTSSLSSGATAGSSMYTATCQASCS
Chain of NLuc-labeled human GIPR (human) (P48546 22-466): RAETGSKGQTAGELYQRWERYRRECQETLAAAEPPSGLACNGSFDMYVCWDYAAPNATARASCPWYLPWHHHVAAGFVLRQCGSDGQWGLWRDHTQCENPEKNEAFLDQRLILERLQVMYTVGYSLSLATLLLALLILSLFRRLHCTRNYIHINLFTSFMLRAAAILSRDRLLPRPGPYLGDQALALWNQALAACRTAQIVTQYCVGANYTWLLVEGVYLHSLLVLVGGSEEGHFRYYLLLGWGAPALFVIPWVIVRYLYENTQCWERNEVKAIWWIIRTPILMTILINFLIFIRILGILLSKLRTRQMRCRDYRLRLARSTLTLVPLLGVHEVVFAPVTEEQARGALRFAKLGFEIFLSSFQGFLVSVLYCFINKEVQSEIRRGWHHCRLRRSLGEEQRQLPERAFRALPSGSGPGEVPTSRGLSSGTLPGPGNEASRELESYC

## CC[C@H](C)[C@H](NC(=O)[C@H](Cc1ccccc1)NC(=O)[C@H](CCC(=O)O)NC(=O)[C@H](CCCCN)NC(=O)[C@H](C)NC(=O)[C@H](C)NC(=O)[C@H](CCC(N)=O)NC(=O)CNC(=O)[C@H](CCC(=O)O)NC(=O)[C@H](CC(C)C)NC(=O)[C@H](Cc1ccc(O)cc1)NC(=O)[C@H](CO)NC(=O)[C@H](CO)NC(=O)[C@@H](NC(=O)[C@H](CC(=O)O)NC(=O)[C@H](CO)NC(=O)[C@@H](NC(=O)[C@H](Cc1ccccc1)NC(=O)[C@@H](NC(=O)CNC(=O)[C@H](CCC(=O)O)NC(=O)[C@H](C)NC(=O)[C@@H](N)Cc1c[nH]cn1)[C@@H](C)O)[C@@H](C)O)C(C)C)C(=O)N[C@@H](C)C(=O)N[C@@H](Cc1c[nH]c2ccccc12)C(=O)N[C@@H](CC(C)C)C(=O)N[C@H](C(=O)N[C@@H](CCCCN)C(=O)NCC(=O)N[C@@H](CCCNC(=N)N)C(N)=O)C(C)C [GLP-1, Glucagon-like peptide-1]
[1]
  Arrestin recruitment to GLP-1R, in words: results in the rapid recruitment of arrestin
[2]
  GIP- vs GLP-1-stimulated insulin release: no difference between GIP- and GLP-1-stimulated cAMP production or insulin release
[3]
  GIP- vs GLP-1-stimulated cAMP production: no difference between GIP- and GLP-1-stimulated cAMP production
[4]
  Overcoming the impaired incretin effect in T2DM: can overcome this impairment in subjects with T2DM

## (Pro3)GIP: an analog of GIP with a glutamic-acid-to-proline substitution at position 3 (YAPGTFISDYSIAMDKIHQQDFVNWLLAQKGKKNDWKHNITQ; Gastric inhibitory polypeptide; UniProt P09681 52-93, looked up, variant E3P)
[5]
  Glucose homeostasis and weight gain: improving glucose homeostasis and preventing weight gain
[6]
  Agonism at GIP receptor: low-potency agonist

## Maridebart cafraglutide: fully human monoclonal anti-human GIPR antagonist antibody conjugated to two GLP-1R agonist peptides
[7]
  Weight loss: robust weight loss

## NES-Venus-mGαq
[8]
  pEC50 of the agonist GIP for recruitment: 8.6 -log EC50/M
[9]
  pEC50 of the agonist GIP for recruitment: 9 -log EC50/M
[10]
  pEC50 of the agonist GLP-1 for recruitment: 7.3 -log EC50/M
[11]
  pEC50 of the agonist GLP-1 for recruitment: 7.1 -log EC50/M

## NES-Venus-mGαs
[8]
  pEC50 of the agonist GIP for recruitment: 8.9 -log EC50/M
[9]
  pEC50 of the agonist GIP for recruitment: 8.9 -log EC50/M
[10]
  pEC50 of the agonist GLP-1 for recruitment: 7.6 -log EC50/M
[11]
  pEC50 of the agonist GLP-1 for recruitment: 7.5 -log EC50/M

## NLuc-labeled arrestin3 (from UniProt P32121 1-409) (natural protein)
[12]
  pEC50 of the agonist GLP-1 for recruitment: 7.3 -log EC50/M

## SYFP2-labeled arrestin3 (from UniProt P32121 1-409) (natural protein)
[13]
  pEC50 of the agonist GLP-1 for recruitment: 7.18 -log EC50/M

Reference: PMC11975949 (Frontiers in Pharmacology, 2025)
